Measured values reported in the RNAGym collection of RNA variant scans (doi:10.7554/elife.90254).

B1: LINE1-full (parent)
chain: UACGUAGGUGGUUUUCCCCUGAUAGUGCUAAGGGGGCCUGGAAGUUUGGACUGGGCAGAGCUCAACACAGCGUGGCAAAGUGGCUGUGGCUAGACUGCCUCUCUGGAUUCCUCGUCACUCAGCAGGGCAUCUCUGAGAGAAAUGCC

Variants of: B1
Test: self-cleavage, relative activity (ratio to wild type); higher = more cleavage; in vitro, sequencing; the parent is a self-cleaving ribozyme
U46C A79U gave a self-cleavage of 1.83. Work on U46C A79G yielded a self-cleavage of 1.29. In the case of U47C C131U, the self-cleavage is reported as 1.91. For U47A G106C, the self-cleavage was 2.21. Variant U46C U143A has a self-cleavage of 1.44. For U46C U143C, the self-cleavage was 1.52. U46C U143G showed a self-cleavage of 1.41. With U47C U52C the self-cleavage was 1.18. Work on U46A U119A yielded a self-cleavage of 1.42. U45G U132A showed a self-cleavage of 0.86. With U46G A67G the self-cleavage was 0.32. Work on U47A A78U yielded a self-cleavage of 2.04. In the case of U47A A78G, the self-cleavage is reported as 0.29. In the case of U47C A78G, the self-cleavage is reported as 1.64. With U45C U85C the self-cleavage was 0.17. In the case of U46G G114A, the self-cleavage is reported as 1.18. Variant U47C G74C has a self-cleavage of 1.61. For U46C U87G, the self-cleavage was 0.55. Variant U46C A136G has a self-cleavage of 1.21. In the case of U45C U104A, the self-cleavage is reported as 1.43. Work on U45C G135A yielded a self-cleavage of 1.28. U47A U87A gave a self-cleavage of 0.11. With U46C U91G the self-cleavage was 0.09. Work on U46C U91C yielded a self-cleavage of 0.99. U45G A117G gave a self-cleavage of 0. For U45C G125C, the self-cleavage was 1.13. Variant U47C U102C has a self-cleavage of 1.9. With U47A A142G the self-cleavage was 1.4. In the case of U47C A94G, the self-cleavage is reported as 0.51. For U47C C90G, the self-cleavage was 0.04. Variant U46C G139A has a self-cleavage of 1.23. U46G U96C gave a self-cleavage of 0.74. U47C U96A gave a self-cleavage of 0.1. In the case of U47A A77C, the self-cleavage is reported as 1.6. Variant U47A A77U has a self-cleavage of 1.46. U47C A140G gave a self-cleavage of 1.52. In the case of U46G U87C, the self-cleavage is reported as 0. U46C G97A gave a self-cleavage of 0.23. Variant U47C G144A has a self-cleavage of 1.44. U47A A129G showed a self-cleavage of 1.43. Work on U46A A142U yielded a self-cleavage of 1.19. In the case of U46C A50G, the self-cleavage is reported as 1.59. Variant U46A A77U has a self-cleavage of 1.24. With U46C A121G the self-cleavage was 1.64. Work on U46C A121C yielded a self-cleavage of 1.9. With U47C A124C the self-cleavage was 1.31. U47C A124G showed a self-cleavage of 1.59. Variant U47C A124U has a self-cleavage of 1.68. U46A U87A gave a self-cleavage of 0.03. U45G G88U gave a self-cleavage of 0.06. With U46C G48A the self-cleavage was 1.04. Variant U47A A67G has a self-cleavage of 0.38. With U47A A50G the self-cleavage was 1.2. In the case of U46G U102C, the self-cleavage is reported as 1.19. With U46C A138U the self-cleavage was 1.65. In the case of U46C, the self-cleavage is reported as 1.41. Work on U46G yielded a self-cleavage of 1.25. U46A showed a self-cleavage of 1.17. Variant U45C G122A has a self-cleavage of 0.81. U46C U132A gave a self-cleavage of 2.44. Variant U46C U132C has a self-cleavage of 1.61. Variant U46C U132G has a self-cleavage of 1.91. Variant U46C U109A has a self-cleavage of 1.41. U45C G137U gave a self-cleavage of 1.23. Work on U46A U102C yielded a self-cleavage of 1.28. With U46C A140U the self-cleavage was 1.46. U46C A140G showed a self-cleavage of 1.41. In the case of U46A G54A, the self-cleavage is reported as 0.37. With U47A C146U the self-cleavage was 1.68. With U45C U87A the self-cleavage was 0.09. U45C U87C gave a self-cleavage of 0.23. Variant U47C A117G has a self-cleavage of 1.81. U47C A117U gave a self-cleavage of 1.33. U46C C95U gave a self-cleavage of 0.23. For U46C C133U, the self-cleavage was 1.13. For U47A U143C, the self-cleavage was 1.39. Work on U47A A57C yielded a self-cleavage of 0.06. For U47A A57U, the self-cleavage was 0.08. Work on U47C C71A yielded a self-cleavage of 0.68. U46C U47G gave a self-cleavage of 1.53. U47A U52C showed a self-cleavage of 1.37. U47C A50U gave a self-cleavage of 1.5. U47A U108C showed a self-cleavage of 1.22. For U46G U62C, the self-cleavage was 0. With U46G U73C the self-cleavage was 1.02. In the case of U45G A142G, the self-cleavage is reported as 2.33. U46C U62C gave a self-cleavage of 0.02. Variant U47A G72A has a self-cleavage of 0.95. U45G C113U gave a self-cleavage of 0.88. Work on U46G G60C yielded a self-cleavage of 0. For U45G U87C, the self-cleavage was 0.25. U47A A140U gave a self-cleavage of 1.25. U46A G58A gave a self-cleavage of 0.04. For U46A U85A, the self-cleavage was 0.06. With U46A U85C the self-cleavage was 0.08. In the case of U46A C146A, the self-cleavage is reported as 1.53. In the case of U46C G72A, the self-cleavage is reported as 0.92. Variant U46C G72U has a self-cleavage of 1.35. With U46A U81C the self-cleavage was 1.15. Work on U45G U81A yielded a self-cleavage of 1.82. U46A U52A gave a self-cleavage of 1.87. U46A C51U gave a self-cleavage of 1.35. In the case of U47A A79G, the self-cleavage is reported as 1.05. With U47A A79U the self-cleavage was 1.64. U46C A64U showed a self-cleavage of 0.55. Work on U46C G93U yielded a self-cleavage of 0.06. Variant U45G U102A has a self-cleavage of 1.73. With U46G A117U the self-cleavage was 2.76. With U45G A50G the self-cleavage was 0.89. With U45C G139C the self-cleavage was 1.63. Variant U45G A78G has a self-cleavage of 1.13. U45G U85G gave a self-cleavage of 0.28. U47C A138G showed a self-cleavage of 1.53. With U47C A69U the self-cleavage was 0.06. With U47C A69C the self-cleavage was 0.07. Variant U45G U47C has a self-cleavage of 1.92. U45G A57G gave a self-cleavage of 0.9. U45G gave a self-cleavage of 1.18. With U45C G126A the self-cleavage was 1.32. With U46G A79G the self-cleavage was 1.23. With U46C A57U the self-cleavage was 0.17. U46G U112G showed a self-cleavage of 0. U46G U112C gave a self-cleavage of 1.48. With U45C G105A the self-cleavage was 1.34. U47A U62A showed a self-cleavage of 0.05. With U47A U62C the self-cleavage was 0.06. U47C G97A showed a self-cleavage of 0.59. For U47C G97C, the self-cleavage was 1.3. With U46C G125C the self-cleavage was 1.44. U45C U96C showed a self-cleavage of 0.12. Work on U46C U100A yielded a self-cleavage of 1.22. Variant U46A A117U has a self-cleavage of 1.46. Variant U46A A117G has a self-cleavage of 1.78. Work on U47A yielded a self-cleavage of 1.22. Work on U47C yielded a self-cleavage of 1.47. Work on U47C A142C yielded a self-cleavage of 1.3. In the case of U47C A136G, the self-cleavage is reported as 0.99. For U46C A92G, the self-cleavage was 0.29. In the case of U46C U104A, the self-cleavage is reported as 1.11. With U46G A107G the self-cleavage was 1.15. In the case of U47A U104C, the self-cleavage is reported as 1.54. U46A A65G showed a self-cleavage of 0.02. With U46A A50G the self-cleavage was 0.87. U46C C84U showed a self-cleavage of 0.2. Work on U46C G74A yielded a self-cleavage of 0.52. For U46C C113U, the self-cleavage was 1.53. In the case of U47C U104A, the self-cleavage is reported as 1.23. U47C U104C showed a self-cleavage of 2.24. Work on U47C U104G yielded a self-cleavage of 1.2. Work on U47A U109C yielded a self-cleavage of 1.19. U46G C103A gave a self-cleavage of 1.25. U46C A124G gave a self-cleavage of 1.54. U46C A124U gave a self-cleavage of 1.25. In the case of U46G U143C, the self-cleavage is reported as 1.43. Variant U47C C76U has a self-cleavage of 1.77. In the case of U46C G106U, the self-cleavage is reported as 0.84. With U46C G106A the self-cleavage was 1.22. Variant U47C A65U has a self-cleavage of 0.1. U46C A94C showed a self-cleavage of 0.1. Work on U47A U119C yielded a self-cleavage of 1.53. In the case of U46A A59G, the self-cleavage is reported as 0.07. U47C U81A gave a self-cleavage of 2.45. In the case of U47C U81G, the self-cleavage is reported as 1.13. With U47A G88U the self-cleavage was 0.03. In the case of U46C G122A, the self-cleavage is reported as 1.6. U46C A78C showed a self-cleavage of 1.9. Variant U46C A78G has a self-cleavage of 1.62.
